These results are taken from patent US20250027068.

Changes are numbered by the printed parent chain.

B1: PRT-505 (protein)
chain: MVTSVWTKGVTPPTDFIKGEDVFHAPYKAGQGWYDITKAFDGGDDLLCGAATAGNMLHWWFDQNKEYIEAYLKKHPEKQKIMFGDQELLDVRKAINTKGSQKNSELFNYFRDKAFPNLSARRLGVMPDLVLDMFINGYYLNVTKTQTTDVNRQEQEKDKRGGIFDAVFGRGDQTKLLTSRHDLKNKGLKEISDLIKQELTEGKALGLSHTYANVRINHVINLWGADFDSDGNLKAIYVTDSDSNASIGMKKYFVGVNSAGKVAISAKEIKEDNIGAQVLGLFTLSTGQKIWNKTNLEHHHHHH
B2: PRT-447 (protein)
chain: MVTSVWTKGVTPPTDFIKGEDVFHAPYKAGQGWYDITKAFDGGDDLLCGAATAGNMLHWWFDQNKDQIEAYLKEHPEKQKINFNGEQMFDVKEAIDTKDDQTNSELFNYFKEKAFPYLSTKHLGVFPDHVLDMFINGYRLSLTNHGPTPVKEGSKDPRGGIFDAVFTRGDQSKLLTSRHDFKEKTLKEISDLIKQELTEGKALALSHTYANVRINHVINLWGADFDSNGNLEAIYVTDSDSNASIGMKKYFVGVNSAGKVAISAKEIEDDNIGAQVLGLFTLSTGQDIWNQTNLEHHHHHH
B3: PRT-459 (protein)
chain: B2 chain with A70R, D100S, A204G, N228E, E232K, E268K, D269E
B4: PRT-524 (protein)
chain: MITSVWTKGVTPPTDFRKIVDGNIAYYHAPYKAGQGWYDITKAFDGGDNLLCGAATAGNMLHWWFDQNKEEIEAYLKKHPEKQKIIFNNQELFDLKAVINTKDSQTNSALFNYFKDKAFPNLSARRLGVFPDLVLDMFINGYYLNVYKTQTTDVNRTYQTKDRRGGIFDAVFTRGVQSKLLTERHDLKNKTLKEISDLIKQELTEGKALGLSHTYANVRINHVINLWGADFDSNGNLEAIYVTDSDTNASIGMKKYFVGVNSAGKVAISAKEIKEDNIGAQVLGLFTLSTGQDIWNQTNLEHHHHHH
B5: PRT-683 (protein)
chain: MQITSVWTKGVTPLTPEQFRYNNEDVIHAPYLAHQGWYDITKAFNGKDNLLCGAATAGNMLHWWFDQNKEEIEAYLKKHPEKQKIIFNNQELFDLRKAINTKDSQTNSQLFNYFRDKAFPNLSARQLGVMPDLVLDMFINGYYLNVFKTQSTDVNRPYQDKDKRGGIFDHVFTRGDQTTLLTARHDLKNKTLNDISQIIKQELQEGKALALSHTYANVSISHVINLWGADFNAEGNLEAIYVTDSDANASIGMKKYFVGKNAHGHVAISAKKIEGENIGAQVLGLFTLSSGKEIWQKLSLEHHHHHH
B6: PRT-636 (protein)
chain: MQITSVWTKGVTPLTMDQFRNYNYDVIHAPYKPGQGWYDITKAFDGKDNLLCGAATAGNMLHWWFDQNKTEIEAYLSKHPEKQKIIFNNQELFDLKAAIDTKDSQTNSQLFNYFRDKAFPNLSARQLGVMPDLVLDMFINGYYLNVFKTQSTDVNRPYQDKDKRGGIFDAVFTRGDQTTLLTARHDLKNKGLNDISTIIKQELTEGKALALSHTYANVSISHVINLWGADFNAEGNLEAIYVTDSDANASIGMKKYFVGINAHGHVAISAKKIEGENIGAQVLGLFTLSSGKDIWQKLSLEHHHHHH
B7: PRT-689 (protein)
chain: MQITSVWTKGVTPLTMDQFTNNNEDVIHAPYKPGQGWYDITKTFDGKDNLLCGAATAGNMLHWWFDQNKEEIENYLKKHPEKQKIIFNNQKLFDLRKAINTKDSQTNSALFNYFRDKAFPNLSARQLGVMPDLVLDMFINGYYLNVFKTQSTDVNREYQTKDKRGGIFDDVFGRGDQTTLLTARHDLKNGGLNDISQIIKQELSSGKALALSHTYANVSISHVINLWGADFNEEGNLEAIYVTDSDANASIGMKKYYVGKNAHGKVAISAKKIEGENIGAQVLGLFTLSSGKEIWQKLSLEHHHHHH
B8: PRT-472 (protein)
chain: MVTSVWTKGVTPPTDFIYGEDVLHAPYKAGQGWYDITKTFNGKDDLLCGAATAGNMLHWWFDQNKEQIENYLKKHPEKQKINFNGEQMFDVKEAIDTKDSQLDSKLFEYFKEKAFPYLSTKHLGVFPDHVIDMFINGYRLSLTNHGPTPVKRGSKDPRGGIFDAVFTRGDQSKLLTNRHDLKNKTLKEISDLIKQELTEGKALGISHTYANVRINHVINLWGADFDAEGNLEAIYVTDSDSNASIGMKKYFVGVNSNGKVAISAKEIEEDNIGAQVLGLFTLSTGQDIWNQTNLEHHHHHH
B9: PRT-473 (protein)
chain: MVTSVWTKGVTPPTDFRKIVDGNIAYYHAPYKAGQGWYDITKTFNGKDDLLCGAATAGNMLHWWFDQNKEQIENYLKKHPEKQKINFNGEQMFDVKEAIDTKDSQLDSKLFEYFKEKAFPYLSTKHLGVFPDHVIDMFINGYRLSLTNHGPTPVKRGSKDPRGGIFDAVFTRGDQSKLLTNRHDFKEKTLKEISDLIKQELTEGKALGISHTYANVRINHVINLWGADFDAEGNLEAIYVTDSDSNASIGMKKYFVGVNSNGKVAISAKEIEEDNIGAQVLGLFTLSTGQDIWNQTNLEHHHHHH
B10: PRT-484 (protein)
chain: MVTSVWTKGVTPPTDFRKIVDGNIAYYHAPYKAGQGWYDITKAFDGGDNLLCGAATAGNMLHWWFDQNKDQIEAYLKEHPEKQKIIFNNQELFDLKAAIDTKDDQTNSELFNYFKEKAFPYLSTKHLGVFPDHVLDMFINGYRLSLTNHGPTPVKEGSKDKRGGIFDAVFTRGVQSKLLTSRHDLKNKTLKEISDLIKQELTEGKALALSHTYANVRINHVINLWGADFDSNGNLEAIYVTDSDTNASIGMKKYFVGVNSAGKVAISAKEIEDDNIGAQVLGLFTLSTGQDIWNQTNLEHHHHHH
B11: PRT-488 (protein)
chain: B10 chain with A74R, D104S, A208G, N232E, E236K, E272K, D273E
B12: PRT-499 (protein)
chain: MVTSVWTKGVTPPADFRKIVDGNIAYYHAPYVANQGWYDITKTFNGKDDLLCGAATAGNMLHWWFDQNKEYIEAYLKKHPEKQKIMFGDQELLDVRKAINTKGSQKNSELFNYFRDKAFPNLSARRLGVMPDLVLDMFINGYYLNVTKTQTTDVNRTYQEKDKRGGIFDAVFTRGDQSKLLTSRHDLKNKGLKEISDLIKQELTEGKALGLSHTYANVRINHVINLWGADFDSDGNLKAIYVTDSDSNASIGMKKYFVGVNSAGKVAISAKEIKEDNIGAQVLGLFTLSTGQDIWNQTNLEHHHHHH
B13: PRT-507 (protein)
chain: MITSVWTKGVTPPTDFIKGEDVFHAPYKAGQGWYDITKAFDGGDDLLCGAATAGNMLHWWFDQNKEEIEAYLKKHPEKQKIMFGDQELLDVRKVINTKDSQTNSALFNYFKDKAFPNLSARRLGVMPDLVLDMFINGYYLNVYKTQTTDVNRTYQTKDRRGGIFDAVFTRGDQSKLLTERHDFKEKTLKEISDLIKQELTEGKALGLSHTYANVRINHVINLWGADFDSNGNLEAIYVTDSDSNASIGMKKYFVGVNSAGKVAISAKEIKEDNIGAQVLGLFTLSTGQDIWNQTNLEHHHHHH

This data set has as its target pooled human IgG (human IgG1,2,3 and 4).
Protein B1 displayed an Enzyme Activity Endpoint Assay (purified): Fab′2 of 37 ng/µL, an Enzyme Activity Endpoint Assay (purified): Fc of 148 ng/µL, an Enzyme Activity Endpoint Assay (purified): IgG of 609 ng/µL and an Enzyme Activity Endpoint Assay (purified): scIgG of 752 ng/µL.
B2 gave an Enzyme Activity Endpoint Assay (purified): Fab′2 of 376 ng/µL, an Enzyme Activity Endpoint Assay (purified): Fc of 255 ng/µL, an Enzyme Activity Endpoint Assay (purified): IgG of 445 ng/µL and an Enzyme Activity Endpoint Assay (purified): scIgG of 0 ng/µL.
The corresponding values for B3 are 137 ng/µL, 193 ng/µL, 373 ng/µL and 415 ng/µL.
The protein B4 yielded an Enzyme Activity Endpoint Assay (purified): Fab′2 of 474 ng/µL, an Enzyme Activity Endpoint Assay (purified): Fc of 285 ng/µL, an Enzyme Activity Endpoint Assay (purified): IgG of 676 ng/µL and an Enzyme Activity Endpoint Assay (purified): scIgG of 0 ng/µL.
For B5, the Enzyme activity endpoint: Fab′2 came out at 1100 ng/µL, the Enzyme activity endpoint: Fc is 570 ng/µL, the Enzyme activity endpoint: IgG came to 0 ng/µL and the Enzyme activity endpoint: scIgG came out at 0 ng/µL.
With B6, the Enzyme Activity Endpoint Assay (purified): Fab′2 was found to be 12 ng/µL, the Enzyme Activity Endpoint Assay (purified): Fc turned out to be 17 ng/µL, the Enzyme Activity Endpoint Assay (purified): IgG amounted to 0 ng/µL and the Enzyme Activity Endpoint Assay (purified): scIgG stood at 0 ng/µL.
In turn, B7 had an Enzyme Activity Endpoint Assay (purified): Fab′2 of 335 ng/µL, an Enzyme Activity Endpoint Assay (purified): Fc of 248 ng/µL, an Enzyme Activity Endpoint Assay (purified): IgG of 376 ng/µL and an Enzyme Activity Endpoint Assay (purified): scIgG of 174 ng/µL.
Consider B8, for which the Enzyme Activity Endpoint Assay (purified): Fab′2 was determined as 1130 ng/µL, the Enzyme Activity Endpoint Assay (purified): Fc is 386 ng/µL, the Enzyme Activity Endpoint Assay (purified): IgG was 0 ng/µL and the Enzyme Activity Endpoint Assay (purified): scIgG came to 0 ng/µL.
B9 displayed an Enzyme Activity Endpoint Assay (purified): Fab′2 of 1340 ng/µL, an Enzyme Activity Endpoint Assay (purified): Fc of 384 ng/µL, an Enzyme Activity Endpoint Assay (purified): IgG of 59 ng/µL and an Enzyme Activity Endpoint Assay (purified): scIgG of 0 ng/µL.
The corresponding values for B10 are 143 ng/µL, 277 ng/µL, 173 ng/µL and 973 ng/µL.
As to B11, the Enzyme Activity Endpoint Assay (purified): Fab′2 is 134 ng/µL, the Enzyme Activity Endpoint Assay (purified): Fc came to 246 ng/µL, the Enzyme Activity Endpoint Assay (purified): IgG is 216 ng/µL and the Enzyme Activity Endpoint Assay (purified): scIgG came to 803 ng/µL.
The corresponding values for B12 are 637 ng/µL, 365 ng/µL, 436 ng/µL and 45 ng/µL.
Take B13: the Enzyme Activity Endpoint Assay (purified): Fab′2 is 927 ng/µL, the Enzyme Activity Endpoint Assay (purified): Fc worked out at 355 ng/µL, the Enzyme Activity Endpoint Assay (purified): IgG is 112 ng/µL and the Enzyme Activity Endpoint Assay (purified): scIgG came out at 0 ng/µL.
